The chains are these.
B1: His6-HI-2 (human phosphatase inhibitor-2, wild type, full length) (natural protein, UniProt P41236 1-205, looked up)
chain: MAASTASHRPIKGILKNKTSTTSSMVASAEQPRGNVDEELSKKSQKWDEMNILATYHPADKDYGLMKIDEPSTPYHSMMGDDEDACSDTEATEAMAPDILARKLAAAEGLEPKYRIQEQESSGEEDSDLSPEEREKKRQFEMKRKLHYNEGLNIKLARQLISKDLHDDDEDEEMLETADGESMNTEESNQGSTPSDQQQNKLRSS
B3: HI-2(I68A) (natural protein, human, UniProt P41236 1-205, looked up)
chain: MAASTASHRPIKGILKNKTSTTSSMVASAEQPRGNVDEELSKKSQKWDEMNILATYHPADKDYGLMKADEPSTPYHSMMGDDEDACSDTEATEAMAPDILARKLAAAEGLEPKYRIQEQESSGEEDSDLSPEEREKKRQFEMKRKLHYNEGLNIKLARQLISKDLHDDDEDEEMLETADGESMNTEESNQGSTPSDQQQNKLRSS

Experiment [1] has as its target Pin1 free of GST (thrombin-cleaved GST-Pin1) (human, UniProt Q13526 1-163). Put plainly: SEC.
Experiment [2] concerns the target B3. Put plainly: pull-down.
Experiment [3] deals with B1. Description: pull-down.
For experiment [4], the target named is T1, HI-2(1-152) (human, UniProt P41236 1-152).
T1 sequence (looked up): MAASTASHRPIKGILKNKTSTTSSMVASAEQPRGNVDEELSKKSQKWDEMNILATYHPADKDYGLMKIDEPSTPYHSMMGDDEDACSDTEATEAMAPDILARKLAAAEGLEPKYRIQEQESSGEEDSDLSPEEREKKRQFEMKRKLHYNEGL
Description: pull-down.

As to B1, in experiment [1], the “stoichiometry N” value was 1 I-2 per Pin1 (2:2).

B2: GST-Pin1iso (human Pin1 isomerase domain, residues 46-163, fused to GST) (domain or fragment, UniProt Q13526 46-163, looked up)
chain: KNGQGEPARVRCSHLLVKHSQSRRPSSWRQEKITRTKEEALELINGYIQKIKSGEEDFESLASQFSDCSSAKARGDLGAFSRGQMQKPFEDASFALRTGEMSGPVFTDSGIHIILRTE
With B2, the binding result in experiment [2] is “binds”. As for MADEEKLPPGWEKRMSRSSGRVYYFNHITNASQWERPSGNSSSG (domain or fragment, UniProt Q13526 1-44, looked up) [GST-Pin1ww (human Pin1 WW domain, residues 1-44, fused to GST)], the binding result in experiment [3] and in experiment [4] was “binds” throughout. Take B3: in experiment [1], the “stoichiometry N” value was 1 I-2 per Pin1 (1:1). Consider MADEEKLPPGWEKRMSRSSGRVYYFNHITNASQWERPSGNSSSG (domain or fragment, human, UniProt Q13526 1-44, looked up, phosphoserine at 16 (PKA)) [PKA phosphorylated GST-Pin1ww], for which, in experiment [3], the binding result was “binds”.

(Values after article PMC3965691 (Biochemistry, 2011).)
